Data published in article PMC6368843 (Biochemistry, 2016).

Assays:
Purβ I-II-III = biological target: T1, Purβ I-II-III (Mus musculus, UniProt O35295); test: ssDNA-binding ELISA
T1 sequence (O35295 41-303): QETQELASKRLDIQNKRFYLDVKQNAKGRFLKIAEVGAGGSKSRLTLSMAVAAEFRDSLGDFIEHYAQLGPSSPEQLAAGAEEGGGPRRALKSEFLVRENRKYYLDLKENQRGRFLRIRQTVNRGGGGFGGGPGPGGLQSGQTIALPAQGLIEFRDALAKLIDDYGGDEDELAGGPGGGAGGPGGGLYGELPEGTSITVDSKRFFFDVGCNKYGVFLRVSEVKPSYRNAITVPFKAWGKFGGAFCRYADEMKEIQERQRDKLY

Purβ III = biological target: T2, Purβ III (Mus musculus, UniProt O35295); test: ssDNA-binding ELISA
T2 sequence (O35295 209-303): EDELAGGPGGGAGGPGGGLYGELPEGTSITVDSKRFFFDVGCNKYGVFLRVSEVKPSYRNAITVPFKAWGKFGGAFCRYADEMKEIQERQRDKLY

[1] = biological target: T3, Purβ FL (full-length NHis-Purβ) (Mus musculus, UniProt O35295); test: ssDNA-binding ELISA
T3 sequence (O35295 1-324): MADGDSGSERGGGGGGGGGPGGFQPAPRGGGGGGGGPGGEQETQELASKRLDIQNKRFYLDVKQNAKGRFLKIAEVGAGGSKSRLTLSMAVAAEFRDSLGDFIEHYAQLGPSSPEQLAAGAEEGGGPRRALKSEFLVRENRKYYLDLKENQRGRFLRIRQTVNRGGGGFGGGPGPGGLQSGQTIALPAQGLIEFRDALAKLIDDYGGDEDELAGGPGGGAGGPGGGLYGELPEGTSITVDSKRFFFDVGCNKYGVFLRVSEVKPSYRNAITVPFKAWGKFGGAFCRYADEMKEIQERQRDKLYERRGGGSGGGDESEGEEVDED

SEC = biological target: the molecule itself; test: SEC
Purβ R159A/R267A = biological target: T4, Purβ R159A/R267A (Mus musculus, UniProt O35295 1-324, R159A;R267A); test: ELISA
T4 sequence: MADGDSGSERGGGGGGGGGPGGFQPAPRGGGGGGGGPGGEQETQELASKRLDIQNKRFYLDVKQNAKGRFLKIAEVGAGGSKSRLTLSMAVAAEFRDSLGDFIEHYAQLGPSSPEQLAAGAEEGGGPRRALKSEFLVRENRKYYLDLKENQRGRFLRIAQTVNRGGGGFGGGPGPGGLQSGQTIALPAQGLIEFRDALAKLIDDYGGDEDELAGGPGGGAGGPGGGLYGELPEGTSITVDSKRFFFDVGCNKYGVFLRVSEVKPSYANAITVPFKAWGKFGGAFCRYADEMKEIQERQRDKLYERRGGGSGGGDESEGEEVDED

Purβ R267A = biological target: T5, Purβ R267A (Mus musculus, UniProt O35295 1-324, R267A); test: ELISA
T5 sequence: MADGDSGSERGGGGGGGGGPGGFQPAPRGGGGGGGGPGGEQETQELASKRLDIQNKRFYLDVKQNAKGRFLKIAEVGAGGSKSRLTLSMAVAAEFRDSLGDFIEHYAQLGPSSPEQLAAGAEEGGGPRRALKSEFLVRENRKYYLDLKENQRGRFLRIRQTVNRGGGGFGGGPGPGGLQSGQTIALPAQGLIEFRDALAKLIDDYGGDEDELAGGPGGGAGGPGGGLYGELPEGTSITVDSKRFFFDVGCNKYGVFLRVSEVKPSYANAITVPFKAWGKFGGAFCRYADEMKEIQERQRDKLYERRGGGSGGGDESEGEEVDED

[2] = biological target: T6, Purβ FL (wild-type NHis-Purβ) (Mus musculus, UniProt O35295 1-324); test: ELISA
T6 sequence: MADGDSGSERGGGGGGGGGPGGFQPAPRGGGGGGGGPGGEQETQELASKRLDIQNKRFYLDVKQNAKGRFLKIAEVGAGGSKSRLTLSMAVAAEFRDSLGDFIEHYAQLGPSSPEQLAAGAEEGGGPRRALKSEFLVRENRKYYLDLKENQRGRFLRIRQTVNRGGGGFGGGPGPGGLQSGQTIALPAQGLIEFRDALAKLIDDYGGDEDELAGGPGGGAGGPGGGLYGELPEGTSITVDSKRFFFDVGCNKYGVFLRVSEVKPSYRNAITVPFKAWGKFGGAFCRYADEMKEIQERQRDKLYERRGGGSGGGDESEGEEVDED

C[C@H](CCC(=O)O)[C@H]1CC[C@H]2[C@@H]3CC[C@@H]4C[C@H](O)CC[C@]4(C)[C@H]3C[C@H](O)[C@]12C [sodium deoxycholate]
IC50 (Purβ I-II-III): 2030 µM
IC50 (Purβ III): 1450 µM
IC50 [1]: 2360 µM

B1: Purβ K82A/R159A/R267A triple point mutant, N-terminally hexahistidine-tagged (natural protein, mouse, UniProt O35295 1-324, looked up)
chain: MADGDSGSERGGGGGGGGGPGGFQPAPRGGGGGGGGPGGEQETQELASKRLDIQNKRFYLDVKQNAKGRFLKIAEVGAGGSASRLTLSMAVAAEFRDSLGDFIEHYAQLGPSSPEQLAAGAEEGGGPRRALKSEFLVRENRKYYLDLKENQRGRFLRIAQTVNRGGGGFGGGPGPGGLQSGQTIALPAQGLIEFRDALAKLIDDYGGDEDELAGGPGGGAGGPGGGLYGELPEGTSITVDSKRFFFDVGCNKYGVFLRVSEVKPSYANAITVPFKAWGKFGGAFCRYADEMKEIQERQRDKLYERRGGGSGGGDESEGEEVDED
stoichiometry N (SEC): 2

B2: Purβ R267A single point mutant, N-terminally hexahistidine-tagged (natural protein, mouse, UniProt O35295 1-324, looked up)
chain: MADGDSGSERGGGGGGGGGPGGFQPAPRGGGGGGGGPGGEQETQELASKRLDIQNKRFYLDVKQNAKGRFLKIAEVGAGGSKSRLTLSMAVAAEFRDSLGDFIEHYAQLGPSSPEQLAAGAEEGGGPRRALKSEFLVRENRKYYLDLKENQRGRFLRIRQTVNRGGGGFGGGPGPGGLQSGQTIALPAQGLIEFRDALAKLIDDYGGDEDELAGGPGGGAGGPGGGLYGELPEGTSITVDSKRFFFDVGCNKYGVFLRVSEVKPSYANAITVPFKAWGKFGGAFCRYADEMKEIQERQRDKLYERRGGGSGGGDESEGEEVDED
stoichiometry N (SEC): 2

B3: Purβ R159A/R267A double point mutant, N-terminally hexahistidine-tagged (natural protein, mouse, UniProt O35295 1-324, looked up)
chain: MADGDSGSERGGGGGGGGGPGGFQPAPRGGGGGGGGPGGEQETQELASKRLDIQNKRFYLDVKQNAKGRFLKIAEVGAGGSKSRLTLSMAVAAEFRDSLGDFIEHYAQLGPSSPEQLAAGAEEGGGPRRALKSEFLVRENRKYYLDLKENQRGRFLRIAQTVNRGGGGFGGGPGPGGLQSGQTIALPAQGLIEFRDALAKLIDDYGGDEDELAGGPGGGAGGPGGGLYGELPEGTSITVDSKRFFFDVGCNKYGVFLRVSEVKPSYANAITVPFKAWGKFGGAFCRYADEMKEIQERQRDKLYERRGGGSGGGDESEGEEVDED
stoichiometry N (SEC): 2

GGGAGCAGAACAGAGGAATGCAGTGGAAGAGA (ssDNA) [PE32-bF]
Kd (Purβ R159A/R267A): 0.0006 ± 4e-05 µM
Kd (Purβ R267A): 0.00057 ± 4e-05 µM
Kd [2]: 0.00017 ± 1e-05 µM
